From US20200157519A1 (IMMUNWORK, published 2020) come the findings set out here.

Assay [1] concerns the target T1, human fibrin (human fibrinogen coated on the plate and treated with thrombin) (human, UniProt P02671 36-629; P02675 45-491; P02679 27-437).
T1 construct: Made on the plate: coated human fibrinogen (Sigma) treated with 1.0 U/mL thrombin, CaCl2 and L-cysteine
T1 sequence (looked up) 1: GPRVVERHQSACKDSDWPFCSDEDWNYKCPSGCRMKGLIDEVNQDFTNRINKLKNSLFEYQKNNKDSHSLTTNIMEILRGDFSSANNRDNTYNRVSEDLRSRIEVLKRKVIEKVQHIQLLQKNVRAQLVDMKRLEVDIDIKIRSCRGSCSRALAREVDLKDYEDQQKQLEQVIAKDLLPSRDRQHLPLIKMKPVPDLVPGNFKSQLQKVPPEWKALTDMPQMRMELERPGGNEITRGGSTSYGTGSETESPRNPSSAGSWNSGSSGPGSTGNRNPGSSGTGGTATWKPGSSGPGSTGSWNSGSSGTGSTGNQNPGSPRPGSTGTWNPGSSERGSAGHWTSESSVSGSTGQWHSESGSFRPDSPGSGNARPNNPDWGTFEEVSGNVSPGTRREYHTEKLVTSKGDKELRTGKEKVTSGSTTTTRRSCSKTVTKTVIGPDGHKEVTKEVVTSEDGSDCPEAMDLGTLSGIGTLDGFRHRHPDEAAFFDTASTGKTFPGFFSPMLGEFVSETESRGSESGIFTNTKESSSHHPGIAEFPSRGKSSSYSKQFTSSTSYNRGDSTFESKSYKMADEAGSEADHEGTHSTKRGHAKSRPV
T1 sequence (looked up) 2: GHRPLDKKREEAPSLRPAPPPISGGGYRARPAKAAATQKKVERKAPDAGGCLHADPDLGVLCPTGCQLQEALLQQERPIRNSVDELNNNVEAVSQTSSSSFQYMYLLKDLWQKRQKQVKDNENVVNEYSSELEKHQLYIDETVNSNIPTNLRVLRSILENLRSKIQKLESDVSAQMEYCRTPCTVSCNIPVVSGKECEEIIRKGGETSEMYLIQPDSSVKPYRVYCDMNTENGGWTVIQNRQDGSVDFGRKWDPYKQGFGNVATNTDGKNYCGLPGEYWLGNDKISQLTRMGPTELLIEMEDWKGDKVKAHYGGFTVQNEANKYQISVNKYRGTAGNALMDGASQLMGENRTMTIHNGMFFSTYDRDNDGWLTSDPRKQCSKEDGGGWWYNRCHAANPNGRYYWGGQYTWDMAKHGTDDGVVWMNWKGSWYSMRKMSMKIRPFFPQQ
T1 sequence (looked up) 3: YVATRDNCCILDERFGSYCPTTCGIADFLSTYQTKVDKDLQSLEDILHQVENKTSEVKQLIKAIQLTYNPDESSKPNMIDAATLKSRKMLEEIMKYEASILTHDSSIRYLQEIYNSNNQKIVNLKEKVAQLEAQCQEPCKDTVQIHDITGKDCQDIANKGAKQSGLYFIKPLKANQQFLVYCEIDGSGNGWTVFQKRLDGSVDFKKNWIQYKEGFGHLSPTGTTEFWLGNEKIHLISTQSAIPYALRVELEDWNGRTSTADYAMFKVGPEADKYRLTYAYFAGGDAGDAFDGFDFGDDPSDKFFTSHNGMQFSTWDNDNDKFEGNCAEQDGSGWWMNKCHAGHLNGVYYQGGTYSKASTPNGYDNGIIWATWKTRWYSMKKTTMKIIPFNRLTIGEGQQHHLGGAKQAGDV
Nature of the assay: ELISA after storage at 4 C for 3 or 6 days, HRP-protein L. Here is the method:
(§1) To evaluate the stability of reteplase-(3D5 scFv) after storage, the reteplase-(3D5 scFv) was stored at 4° C. for 3, 6 and 30 days, and then SDS-PAGE and ELISA analysis were performed.
(§2) 96-well polystyrene microplates were coated with human fibrinogen (Sigma) (20 μg/mL) in PBS buffer (100 μL/well). After overnight incubation at 4° C., the coated wells were washed with PBS buffer. To induce the cross-linking of human fibrin, coated wells was incubated at 37° C. for 1 hour with human α-thrombin (Sigma) at a final concentration of 1 U/mL in TBS buffer with 2 mM CaCl₂ and 7 mM L-cystine (Merck). After blocking the wells with a blocking buffer (5% non-fat dry milk/PBS), 100 μL of reteplase-(3D5-scFv) at a final concentration of 0.1, 1 and 10 μg/mL were added to each well and incubate at room temperature for 1 hour. Thereafter, the plates were washed three times, and HRP-conjugated protein L diluted to 1/5000 was added to the wells and incubated for 1 hour at room temperature. The wells were washed three times and added with 100 μL of 3,3′,5,5′-Tetramethylbenzidine (TMB) substrate buffer. 5 minutes later, the color development was stopped with 1 M HCl. The optical density (OD) was measured at 450 nm using a microplate reader (Molecular Devices) and the data were processed using Graph Pad Prism software. […]

Assay [2] concerns the target T2, crosslinked human fibrin treated by human factor XIIIa (human, UniProt P02671 36-629; P02675 45-491; P02679 27-437, crosslinked by factor XIIIa).
T2 construct: Coated human fibrinogen treated with thrombin and 0.55 ug factor XIIIa (Zedira) per well; also called crosslinked fibrin
T2 sequence (looked up) 1: T1 sequence (looked up) 1
T2 sequence (looked up) 2: T1 sequence (looked up) 2
T2 sequence (looked up) 3: T1 sequence (looked up) 3
The description is as above. As to the method: as §1, §2

B1: recombinant reteplase-(3D5 VL-218-VH scFv α fibrin) protein (other)
chain: SYQGNSDCYFGNGSAYRGTHSLTESGASCLPWNSMILIGKVYTAQNPSAQALGLGKHNYCRNPDGDAKPWCHVLKNRRLTWEYCDVPSCSTCGLRQYSQPQFRIKGGLFADIASHPWQAAIFAKHRRSPGERFLCGGILISSCWILSAAHCFQERFPPHHLTVILGRTYRVVPGEEEQKFEVEKYIVHKEFDDDTYDNDIALLQLKSDSSRCAQESSVVRTVCLPPADLQLPDWTECELSGYGKHEALSPFYSERLKEAHVRLYPSSRCTSQHLLNRTVTDNMLCAGDTRSGGPQANLHDACQGDSGGPLVCLNDGRMTLVGIISWGLGCGQKDVPGVYTKVTNYLDWIRDNMRPASGGGGSGGGGSGGGGSDIQMTQSPSSLSASVGDRVTITCRASQDVSNNVAWYQQKPGKAPKLLIFWSPWLYSGVPSRFSGSGSGTDFTLTISSLQPEDFATYYCQQGWDSPVTFGQGTKVEIKRGSTSGSGKPGSGEGSTKGEVQLVESGGGLVQPGGSLRLSCAASGFTISDFGIHWVRQAPGKGLEWVASIWPSGGYTYYADSVKGRFTISADTSKNTAYLQMNSLRAEDTAVYYCARSWFYSWYDYWGQGTLVTVSS
notes: Fusion: reteplase, flexible linker, 3D5 VL, 218 linker, 3D5 VH; also called reteplase-(3D5 scFv); reteplase-(3D5-scFv)
On to B1, for which the binding result in assay [1] and in assay [2] was “binds” throughout.
